Measured values reported in publication PMC12658067.

What was measured:
[1] = biological target: C-tail deletion mutant of T7 gp4A' with 17 C-terminal amino acid residues deleted (gp4A' ΔCt) (bacteriophage T7) (UniProt P03692)
[2] = biological target: C-tail deletion mutant of T7 gp4A' with 17 C-terminal amino acid residues deleted (gp4A' ΔCt) (bacteriophage T7) (UniProt P03692); remark: listed apart in the source
[3] = biological target: M64L mutant of T7 helicase gp4 (T7 gp4A') (bacteriophage T7) (UniProt P03692)

Row | fork regression during stalling under torsion (angular optical trap), ΔCt exo- replisome, mean fork position over a minute [1] [bp] | fork regression during stalling under torsion (angular optical trap), ΔCt replisome, mean fork position over a minute [2] [bp] | fork regression during stalling under torsion (angular optical trap), WT replisome, mean fork position over a minute [3] [bp] | Substance
1 | 340 | – | – | Exonuclease deficient mutant of T7 gp5 DNA polymerase (D5A, E7A) complexed with E. coli thioredoxin (from UniProt P00581 1-704; P0AA25 1-109)
2 | – | 240 | 80 | Wild-type T7 gp5 DNA polymerase complexed with E. coli thioredoxin (from UniProt P00581 1-704; P0AA25 1-109)
